Measured values as given in publication PMC7018516, “Structure of the AAA protein Msp1 reveals mechanism of mislocalized membrane protein extraction” (eLife, 2020).

Assays:
[1] = biological target: Δ30-Msp1 (cytosolic domain of Chaetomium thermophilum Msp1 lacking its 30 amino acid N-terminal membrane anchor) (Chaetomium thermophilum); experiment: SEC; gel filtration of the purified protein in Msp1 lysis buffer (25 mM HEPES pH 7.5, 300 mM NaCl, 1 mM DTT, 2 mM MgCl2); self-association
[2] = biological target: Δ30-Msp1 (cytosolic domain of Chaetomium thermophilum Msp1 lacking its 30 amino acid N-terminal membrane anchor) (Chaetomium thermophilum); experiment: cryo-EM structure; Δ30-Msp1 at 50–100 μM with 5 mM MgCl2 and 5 mM ADP•BeFx, 25 mM HEPES pH 7.5, 300 mM NaCl, 1 mM DTT, 2.5% glycerol; subunit with subunit; open and closed conformations
Δ30-Msp1 [3] = biological target: T1, Δ30-Msp1 (Thermochaetoides thermophila, UniProt G0S654, E214Q); experiment: cryo-EM structure of complex; details: 2 mM ATP, 2 mM MgCl2, pH 7.5; subunits M1-M5; nucleotide-binding pocket; Walker B mutant, hydrolysis inactive
T1 construct: gene CTHT_0034230; cytosolic domain lacking the 30-residue N-terminal membrane anchor; GST tag removed by thrombin; expressed in E. coli BL21(DE3); homohexamer with trapped endogenous E. coli peptide in the pore
T1 sequence (G0S654 entry or part of it E214Q): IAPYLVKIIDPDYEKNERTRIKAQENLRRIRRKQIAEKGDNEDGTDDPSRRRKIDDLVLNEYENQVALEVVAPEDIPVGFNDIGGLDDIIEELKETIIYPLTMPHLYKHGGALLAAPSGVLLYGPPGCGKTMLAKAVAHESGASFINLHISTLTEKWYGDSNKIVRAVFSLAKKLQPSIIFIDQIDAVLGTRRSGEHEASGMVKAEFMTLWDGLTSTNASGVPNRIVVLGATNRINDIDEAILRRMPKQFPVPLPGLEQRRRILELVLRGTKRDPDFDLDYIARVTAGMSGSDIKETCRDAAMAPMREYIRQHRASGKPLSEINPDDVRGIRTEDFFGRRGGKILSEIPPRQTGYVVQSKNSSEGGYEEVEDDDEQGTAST

[4] = biological target: Δ30-Msp1^E214Q (Walker B mutant of the cytosolic domain of Chaetomium thermophilum Msp1) (Chaetomium thermophilum); experiment: SEC; gel filtration of the purified protein in Msp1 lysis buffer (25 mM HEPES pH 7.5, 300 mM NaCl, 1 mM DTT, 2 mM MgCl2); self-association
[5] = biological target: Δ30-Msp1^E214Q (Walker B mutant of the cytosolic domain of Chaetomium thermophilum Msp1) (Chaetomium thermophilum); experiment: cryo-EM structure; Δ30-Msp1^E214Q at 50–100 μM with 2 mM ATP and 2 mM MgCl2, 25 mM HEPES pH 7.5, 300 mM NaCl, 1 mM DTT, 2.5% glycerol; subunit with subunit; hexamer and larger oligomer classes
[6] = biological target: Δ30-Msp1^E214Q (Walker B mutant of the cytosolic domain of Chaetomium thermophilum Msp1) (Chaetomium thermophilum); experiment: as above; remark: listed apart in the source
Δ30-Msp1 [7] = biological target: T2, Δ30-Msp1 (Thermochaetoides thermophila, UniProt G0S654); experiment: cryo-EM structure of complex; details: 5 mM ADP•BeFx, 5 mM MgCl2, pH 7.5; ADP without BeFx in subunit M5; nucleotide-binding pocket; substrate peptide in pore
T2 construct: gene CTHT_0034230; cytosolic domain lacking the 30-residue N-terminal membrane anchor; GST tag removed by thrombin; expressed in E. coli BL21(DE3); homohexamer with trapped endogenous E. coli peptide in the pore
T2 sequence (G0S654 entry or part of it, stated change not applied): as the sequence (G0S654 entry or part of it E214Q) above, with Q184E counted along it

## Δ30-Msp1 (cytosolic domain of Chaetomium thermophilum Msp1 lacking its 30 amino acid N-terminal membrane anchor) (enzyme)
[1]
  stoichiometry N: 6
[2]
  stoichiometry N: 6

## Nc1ncnc2c1ncn2[C@@H]1O[C@H](COP(=O)(O)OP(=O)(O)OP(=O)(O)O)[C@@H](O)[C@H]1O [ATP]
Δ30-Msp1 [3]
  cryo-EM structure of complex: In Δ30-Msp1^E214Q, M1-M5 display clear density for ATP

## Δ30-Msp1^E214Q (Walker B mutant of the cytosolic domain of Chaetomium thermophilum Msp1) (enzyme)
[4]
  stoichiometry N: > 6
[5]
  stoichiometry N: 6
[6]
  stoichiometry N: 7

## Nc1ncnc2c1ncn2[C@@H]1O[C@H](COP(=O)(O)OP(=O)(O)O)[C@@H](O)[C@H]1O [ADP]
Δ30-Msp1 [7]
  cryo-EM structure of complex: M1 -M4 were bound to ADP•BeFx (mimicking the ATP state), M5 was bound to ADP
